We go through two molecules from article PMC3621209, “Biochemical properties of a novel thermostable and highly xylose-tolerant β-xylosidase/α-arabinosidase from Thermotoga thermarum” (Biotechnology for Biofuels, 2013).

Broadly, the stoichiometry N is a count of units in the complex or per binding partner. What is called Km is the concentration of substrate that gives half-maximal velocity.

In data set [1] the target is Tth xynB3 β-xylosidase from Thermotoga thermarum DSM 5069 (Thermotoga thermarum DSM 5069). The experiment in a line: SEC; Superdex 200 10/30 GL column on an ÄKTA FPLC system; MW calculated from the calibration curve of the gel filtration column; oligomerization state of the purified native protein.
Substrate in data set [2]: O=[N+]([O-])c1ccc(O[C@@H]2OC[C@@H](O)[C@H](O)[C@H]2O)cc1
Put plainly: purified protein. The settings on record: 50 mM imidazole-potassium buffer pH 6.0, 85°C (standard conditions; text says optimal conditions). Type of data set: biochemical, Pseudothermotoga thermarum.

Substrate in data set [3]: O=[N+]([O-])c1ccc(O[C@@H]2O[C@@H](CO)[C@H](O)[C@H]2O)cc1
Put plainly: purified protein. Type of data set: biochemical, Pseudothermotoga thermarum. The following applies: 50 mM imidazole-potassium buffer pH 6.0, 85°C (standard conditions; text says optimal conditions).

Regarding “Tth xynB3 β-xylosidase from Thermotoga thermarum DSM 5069 (enzyme)”, the stoichiometry N in data set [1] is 5.

B1: Tth xynB3 β-xylosidase (Pseudothermotoga thermarum DSM 5069) (protein)
chain: MDLYKNPNVPAKVRAKDLLSKMTLEEKIAQLGSVWSYELLTEDGKFSVEKAKEILKHGIGQITRPGGATNFEPPEVAKLVNEIQKFLVENTRLGIPAIMHEECLAGYMGLGATIFPQPIGMASTWDPELVEKITSAIREDLRKLGITQGLAPVLDVARDPRWGRTEETFGESPYLVAKMGVAYVKGLQGSDITKGVVATGKHFAGYSASEGGKNWAPTNIPPRELREVFLYPFEAAVKEAGLLSIMNSYSEIDGIPCASNRELLTDILRRTWGFEGIVVSDYFAVDMLAAYHRMAKNKAEAAKYALEAGIDIELPKTDCYLHLKSLVENGIISEKLLDEAVLRVLTLKFLLGLFENPYAEGGSLNDHNDIALEASRKSIVLLKNNGILPLKNDVKIALVGPTANDVRNLLGDYSYLVHIKTLLENVNATTFNAPKFNLKKVEELVEAHLKKIPSILAEFAKRAKEIYYAKGCDITDPSREGFAEALEAAKKADVVVAVVGDRSGLTIECTSGESRDMANLKLPGVQEEFILELTKVGKPIVVVLVTGRPYSLKAFVNKVNAIVQLWLPGETGAQALAEVIFGQVNPSGKLPISFPASAGQIPVFHYVKPSGGRSCWHGNYVDEDVKPLFPFGHGLSYTTFSYTNLRIEQQEIPIAGSVKLKVDVQNTGEIYGEEVVQLYISREHASVTRPVKELKGFARVKLQPKETKTVVFEIHTDVLAYYDRDMKLVVEPGEYKVLIGSSAEDIRCQGNFKVVGEKRLVQDNRVFFTNTKIE
notes: full length, 774 residues (2,322 bp), pET-20b NdeI/XhoI in E. coli BL21 (DE3), Ni-NTA purified after heat treatment; theoretical monomer 85,129 Da; 5-mer in solution (422,474 Da); primers […]; (N-terminal MDLYKNPNV)
On to B1, for which the values for the Km in data set [2] and in data set [3] were 270 µM and 210 µM, respectively.
